The values that follow are results of earlier work, collected in article PMC3433420.

Among the targets are DAPP1 (Homo sapiens) (UniProt Q9UN19); PIK3R1-N (Homo sapiens) (UniProt P27986); SH2D3C (Homo sapiens) (UniProt Q8N5H7); SYK-NC (Homo sapiens) (UniProt P43405); YES1 (Homo sapiens) (UniProt P07947); TXK (Homo sapiens) (UniProt P42681).
What all share (conditions): cited from earlier work

Chain of TXK (Homo sapiens) (P42681 145-251): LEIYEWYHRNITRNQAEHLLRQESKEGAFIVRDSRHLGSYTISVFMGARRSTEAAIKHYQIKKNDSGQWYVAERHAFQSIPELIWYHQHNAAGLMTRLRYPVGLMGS
Chain of SH2D3C (Homo sapiens) (Q8N5H7 215-324): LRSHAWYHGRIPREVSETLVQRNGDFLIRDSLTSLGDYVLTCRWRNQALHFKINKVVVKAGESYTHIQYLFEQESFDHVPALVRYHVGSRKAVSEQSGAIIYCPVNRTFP
Chain of DAPP1 (Homo sapiens) (Q9UN19 30-134): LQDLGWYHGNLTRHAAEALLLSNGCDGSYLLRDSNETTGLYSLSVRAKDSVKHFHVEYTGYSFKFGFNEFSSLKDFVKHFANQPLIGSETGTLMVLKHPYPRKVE
Chain of YES1 (Homo sapiens) (P07947 153-260): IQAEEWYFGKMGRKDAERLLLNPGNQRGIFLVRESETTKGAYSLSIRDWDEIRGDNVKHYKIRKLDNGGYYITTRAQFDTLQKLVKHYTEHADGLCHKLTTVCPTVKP
Chain of PIK3R1-N (Homo sapiens) (P27986 328-723): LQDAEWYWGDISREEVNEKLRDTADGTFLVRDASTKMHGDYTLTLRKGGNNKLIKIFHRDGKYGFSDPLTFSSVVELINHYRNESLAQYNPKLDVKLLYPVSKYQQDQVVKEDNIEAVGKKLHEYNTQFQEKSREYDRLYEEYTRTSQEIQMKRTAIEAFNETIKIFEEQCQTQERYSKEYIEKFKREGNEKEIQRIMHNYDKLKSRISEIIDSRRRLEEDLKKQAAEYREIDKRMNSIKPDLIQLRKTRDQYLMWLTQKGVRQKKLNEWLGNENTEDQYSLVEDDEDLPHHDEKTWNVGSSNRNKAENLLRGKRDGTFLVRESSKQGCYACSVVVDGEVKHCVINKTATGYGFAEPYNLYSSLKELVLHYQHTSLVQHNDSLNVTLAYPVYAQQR

Regarding …pYEEMRAFQ, in the data set with DAPP1 (Homo sapiens), the apparent Kd (screen) is 999 nM.
Turning to …pYLIPQQGFd, the apparent Kd (screen) with PIK3R1-N (Homo sapiens) is 899 nM; with SH2D3C (Homo sapiens) it was 2000 nM; with SYK-NC (Homo sapiens), 534 nM.
In the case of …pYLVPQQGF, the apparent Kd (screen) in the data set with YES1 (Homo sapiens) is 1170 nM.
Consider …pYWDQDPPE, for which the apparent Kd (screen) with TXK (Homo sapiens) is 2000 nM.
